Laboratory results reported in patent US20200277397A1 (Genmab, published 2020).

Assays:
[1] = biological target: T1, full length cynomolgus monkey 5T4 (cynomolgus monkey, UniProt Q4R8Y9 35-420); test: flow cytometry, HEK-293 cells transfected with cynomolgus monkey 5T4 (right panel), PE anti-human IgG F(ab')2, MFI PE
T1 construct: Uniprot Q4R8Y9; also called cynomolgus monkey 5T4 on HEK-293 cells
T1 sequence: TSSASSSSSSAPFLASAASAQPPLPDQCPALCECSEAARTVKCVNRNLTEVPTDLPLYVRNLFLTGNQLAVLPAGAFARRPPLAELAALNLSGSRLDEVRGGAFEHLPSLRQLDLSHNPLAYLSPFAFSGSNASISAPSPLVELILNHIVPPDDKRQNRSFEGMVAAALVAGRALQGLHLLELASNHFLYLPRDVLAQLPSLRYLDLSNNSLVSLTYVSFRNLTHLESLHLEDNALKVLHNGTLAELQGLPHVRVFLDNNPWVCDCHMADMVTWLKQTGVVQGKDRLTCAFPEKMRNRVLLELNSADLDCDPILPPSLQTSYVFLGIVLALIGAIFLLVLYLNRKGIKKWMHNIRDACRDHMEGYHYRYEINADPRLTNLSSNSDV

full length human 5T4 [2] = biological target: T2, full length human 5T4 (human, UniProt Q13641 32-420); test: flow cytometry, MDA-MB-231 cells, PE anti-human IgG F(ab')2, MFI PE
T2 construct: Uniprot Q13641; Used here also for endogenous 5T4 on the human tumour cell lines
T2 sequence: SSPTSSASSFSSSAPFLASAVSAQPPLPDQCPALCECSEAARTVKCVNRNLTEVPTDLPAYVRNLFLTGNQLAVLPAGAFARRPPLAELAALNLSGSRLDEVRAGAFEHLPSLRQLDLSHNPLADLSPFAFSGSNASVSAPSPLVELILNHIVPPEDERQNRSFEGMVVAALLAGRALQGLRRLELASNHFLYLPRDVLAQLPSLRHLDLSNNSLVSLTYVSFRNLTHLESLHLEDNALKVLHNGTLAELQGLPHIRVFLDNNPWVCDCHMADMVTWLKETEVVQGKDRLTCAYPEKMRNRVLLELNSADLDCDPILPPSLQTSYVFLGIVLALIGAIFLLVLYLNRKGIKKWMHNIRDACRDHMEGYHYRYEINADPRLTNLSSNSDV

[3] = biological target: T1, full length cynomolgus monkey 5T4; test: flow cytometry, HEK-293 cells transfected with cynomolgus monkey 5T4 (right panel), PE anti-human IgG F(ab')2, MFI PE; remark: listed apart in the source
full length human 5T4 [4] = biological target: T2, full length human 5T4; test: flow cytometry, HEK-293 cells transfected with full length human 5T4 (left panel), FITC anti-human IgG F(ab')2, MFI FITC
Protocol: (§1) Binding of monovalent and bivalent 5T4 antibodies was analysed using HEK-293 cells transiently transfected with full length human (left panels) or cynomolgus monkey 5T4 (right panels). Cells were incubated with increasing concentrations of antibodies, as indicated. After secondary labelling with FITC conjugated goat-anti-human IgG F(ab′)2, binding was analysed by flow cytometry. […] Data are presented as mean fluorescence intensity (MFI) values of two technical replicates±SD.
(§2) Experiments were performed in technical duplicate. After washing twice in staining buffer, cells were incubated in 50 μL secondary antibody at 4° C. for 30 min. […] Cells were washed twice in staining buffer, re-suspended in 30 μL staining buffer and analyzed on an iQue Screener (Intellicyt Corporation, USA). Binding curves were analyzed using non-linear regression (sigmoidal dose-response with variable slope) using GraphPad Prism V7.02 software (Graph Pad Software, San Diego, Calif., USA).

[5] = biological target: T1, full length cynomolgus monkey 5T4; test: flow cytometry, HEK-293 cells transfected with full length cynomolgus monkey 5T4 (right panel), FITC anti-human IgG F(ab')2, MFI FITC
Protocol: as §1, §2

full length human 5T4 [6] = biological target: T2, full length human 5T4; test: flow cytometry, HeLa cells, PE anti-human IgG F(ab')2, MFI PE
full length human 5T4 [7] = biological target: T2, full length human 5T4; test: flow cytometry, HeLa cells (left panel), FITC anti-human IgG F(ab')2, MFI FITC
Protocol: (§3) After washing twice in staining buffer, cells were incubated in 50 μL secondary antibody at 4° C. for 30 min. […] Next, cells were washed twice in staining buffer, re-suspended in 120 μL staining buffer and analyzed on a BD LSRFortessa FACS (BD Biosciences, USA). Binding curves were analyzed using non-linear regression (sigmoidal dose-response with variable slope) using GraphPad Prism V7.02 software (GraphPad Software, San Diego, Calif., USA).

full length human 5T4 [8] = biological target: T2, full length human 5T4; test: flow cytometry, MDA-MB-231 cells (right panel), FITC anti-human IgG F(ab')2, MFI FITC
Protocol: as §3

full length human 5T4 [9] = biological target: T2, full length human 5T4; test: flow cytometry, HEK-293 cells transfected with human 5T4 (left panel), PE anti-human IgG F(ab')2, MFI PE
[10] = biological target: T1, full length cynomolgus monkey 5T4; test: flow cytometry, HEK-293 cells transfected with full length cynomolgus monkey 5T4 (right panel), FITC anti-human IgG F(ab')2, MFI FITC; remark: listed apart in the source
Protocol: as §1, §2

full length human 5T4 [11] = biological target: T2, full length human 5T4; test: flow cytometry, HeLa cells, PE anti-human IgG F(ab')2, MFI PE; remark: listed apart in the source
full length human 5T4 [12] = biological target: T2, full length human 5T4; test: flow cytometry, MDA-MB-231 cells, PE anti-human IgG F(ab')2, MFI PE; remark: listed apart in the source
full length human 5T4 [13] = biological target: T2, full length human 5T4; test: flow cytometry, HeLa cells (left panel), FITC anti-human IgG F(ab')2, MFI FITC; remark: listed apart in the source
Protocol: as §3

full length human 5T4 [14] = biological target: T2, full length human 5T4; test: flow cytometry, MDA-MB-231 cells (right panel), FITC anti-human IgG F(ab')2, MFI FITC; remark: listed apart in the source
Protocol: as §3

full length human 5T4 [15] = biological target: T2, full length human 5T4; test: flow cytometry, HEK-293 cells transfected with human 5T4 (left panel), PE anti-human IgG F(ab')2, MFI PE; remark: listed apart in the source
[16] = biological target: T1, full length cynomolgus monkey 5T4; test: flow cytometry, HEK-293 cells transfected with cynomolgus monkey 5T4 (right panel), PE anti-human IgG F(ab')2, MFI PE; remark: listed apart in the source
full length human 5T4 [17] = biological target: T2, full length human 5T4; test: flow cytometry, HEK-293 cells transfected with full length human 5T4 (left panel), FITC anti-human IgG F(ab')2, MFI FITC; remark: listed apart in the source
Protocol: as §1, §2

[18] = biological target: T1, full length cynomolgus monkey 5T4; test: flow cytometry, HEK-293 cells transfected with full length cynomolgus monkey 5T4 (right panel), FITC anti-human IgG F(ab')2, MFI FITC; remark: listed apart in the source
Protocol: as §1, §2

B1: IgG1-5T4-076-FEAR (antibody, V domains shown)
VH: QVQLVQSGAEVKKPGASVKVSCKASGYTFTSYGISWVRQAPGQGLEWMGWISAYNGNTNYAQKLQGRVTMTTDTSTRTAYMELRSLRSDDTAVYYCARDPGYFDWLYGDYWGQGTLVTVSS
VL: AIQLTQSPSSLSASVGDRVTITCRASQGISSALAWYQQKPGKAPKLLIYDASSLESGVPSRFSGSGSGTDFTLTISSLQPEDFATYYCQQFNSYPRTFGQGTKVEIKR
notes: Human IgG1 FEAR, kappa (as for m12)
For B1, which “EC50 (read off the curve)” value [1] is on record?
Its value is ~0.01 µg/mL.

B2: IgG1-5T4-207-FEAR (antibody, V domains shown)
VH: QVQLQQWGAGLLKPSETLSLTCAVYGGSFSGYYWTWIRQPPGKGLEWIGEIDHSESTNYNPSLKSRVTISVDTSKNQFSLKLSSVTAADTAVYYCAGWFGELYHYYYGMDVWGQGTTVTVSS
VL: EIVLTQSPATLSLSPGERATLSCRASQSVSSYLAWYQQKPGQAPRLLIYDASNRATGIPARFSGSGSGTDFTLTISSLEPEDFAVYYCQQRSNWPLTFGGGTKVEIKR
notes: as for B1
For B2, which “EC50 (read off the curve)” value (full length human 5T4 [2]) is on record?
The value was ~0.02 µg/mL.

And the “EC50 (read off the curve)” value [3]?
The value was ~0.1 µg/mL.

B3: bsIgG1-huCD3-H101G-FEALx5T4-H8-FEAR (bispecific antibody)
heavy 1: not shown
VL 1: not shown
heavy 2: EVQLQQSGPDLVKPGASVKISCKASGYSFTGYYMHWVKQSHGKSLEWIGRINPNNGVTLYNQKFKDKAILTVDKSSTTAYMELRSLTSEDSAVYYCARSTMITNYVMDYWGQVTSVTVSSASTKGPSVFPLAPSSKSTSGGTAALGCLVKDYFPEPVTVSWNSGALTSGVHTFPAVLQSSGLYSLSSVVTVPSSSLGTQTYICNVNHKPSNTKVDKRVEPKSCDKTHTCPPCPAPEFEGGPSVFLFPPKPKDTLMISRTPEVTCVVVAVSHEDPEVKFNWYVDGVEVHNAKTKPREEQYNSTYRVVSVLTVLHQDWLNGKEYKCKVSNKALPAPIEKTISKAKGQPREPQVYTLPPSREEMTKNQVSLTCLVKGFYPSDIAVEWESNGQPENNYKTTPPVLDSDGSFFLYSRLTVDKSRWQQGNVFSCSVMHEALHNHYTQKSLSLSPGK
VL 2: SIVMTQTPTFLLVSAGDRVTITCKASQSVSNDVAWYQQKPGQSPTLLISYTSSRYAGVPDRFIGSGYGTDFTFTISTLQAEDLAVYFCQQDYNSPPTFGGGTKLEIK
Which results are given for B3?
binding result (full length human 5T4 [4]): binds; EC50 (read off the curve) [5]: ~0.1 µg/mL

B4: bsIgG1-huCD3-H101G-FEALx5T4-207-FEAR (bispecific antibody)
heavy 1: not shown
VL: not shown
heavy 2: QVQLQQWGAGLLKPSETLSLTCAVYGGSFSGYYWTWIRQPPGKGLEWIGEIDHSESTNYNPSLKSRVTISVDTSKNQFSLKLSSVTAADTAVYYCAGWFGELYHYYYGMDVWGQGTTVTVSSASTKGPSVFPLAPSSKSTSGGTAALGCLVKDYFPEPVTVSWNSGALTSGVHTFPAVLQSSGLYSLSSVVTVPSSSLGTQTYICNVNHKPSNTKVDKRVEPKSCDKTHTCPPCPAPEFEGGPSVFLFPPKPKDTLMISRTPEVTCVVVAVSHEDPEVKFNWYVDGVEVHNAKTKPREEQYNSTYRVVSVLTVLHQDWLNGKEYKCKVSNKALPAPIEKTISKAKGQPREPQVYTLPPSREEMTKNQVSLTCLVKGFYPSDIAVEWESNGQPENNYKTTPPVLDSDGSFFLYSRLTVDKSRWQQGNVFSCSVMHEALHNHYTQKSLSLSPGK
light: not shown
What does the source list for B4?
EC50 (read off the curve) (full length human 5T4 [6]): ~0.04 µg/mL; EC50 (read off the curve) (full length human 5T4 [2]): ~0.04 µg/mL; EC50 (read off the curve) (full length human 5T4 [7]): ~0.05 µg/mL; EC50 (read off the curve) (full length human 5T4 [8]): ~0.1 µg/mL; EC50 (read off the curve) (full length human 5T4 [9]): ~0.05 µg/mL; EC50 (read off the curve) [3]: ~0.03 µg/mL; EC50 (read off the curve) [10]: ~0.1 µg/mL

B5: bsIgG1-huCD3-H101G-FEALx5T4-226-FEAR (bispecific antibody)
heavy 1: not shown
VL: not shown
heavy 2: QVQLQQWGAGLLKPSETLSLTCAVYGGSFSGYYWSWIRQPPGKGLEWIGEIDHSGSTNYNPSLKSRVTISVDTSKNQFSLKLSSVTAADTAVYYCAAWFGELWDYYYGMDVWGQGTTVTVSSASTKGPSVFPLAPSSKSTSGGTAALGCLVKDYFPEPVTVSWNSGALTSGVHTFPAVLQSSGLYSLSSVVTVPSSSLGTQTYICNVNHKPSNTKVDKRVEPKSCDKTHTCPPCPAPEFEGGPSVFLFPPKPKDTLMISRTPEVTCVVVAVSHEDPEVKFNWYVDGVEVHNAKTKPREEQYNSTYRVVSVLTVLHQDWLNGKEYKCKVSNKALPAPIEKTISKAKGQPREPQVYTLPPSREEMTKNQVSLTCLVKGFYPSDIAVEWESNGQPENNYKTTPPVLDSDGSFFLYSRLTVDKSRWQQGNVFSCSVMHEALHNHYTQKSLSLSPGK
light: not shown
B5 was tested. Which “EC50 (read off the curve)” value (full length human 5T4 [11]) did it give?
Its value is ~0.04 µg/mL.

What about the “EC50 (read off the curve)” value (full length human 5T4 [12]) of the same binder?
The value was ~0.04 µg/mL.

What about the “EC50 (read off the curve)” value (full length human 5T4 [13]) of the same binder?
The value was ~0.02 µg/mL.

And the “EC50 (read off the curve)” value (full length human 5T4 [14])?
Its value is ~0.09 µg/mL.

And the “EC50 (read off the curve)” value (full length human 5T4 [15])?
Its value is ~0.09 µg/mL.

What about the “EC50 (read off the curve)” value [16] of the same binder?
The value was ~0.06 µg/mL.

What about the “EC50 (read off the curve)” value (full length human 5T4 [17]) of the same binder?
Its value is ~0.2 µg/mL.

What about the “EC50 (read off the curve)” value [18] of the same binder?
The value was ~0.1 µg/mL.
